Assay results published in patent publication US20230061378A1 (SUZHOU ALPHAMAB, published 2023).

B1: 11E6 (antibody, V domains shown)
VH: EVKVVESGGGLVQPGGSLRLSCTTSGFTFTDYYVSWVRQPPGKALEWLGFIRNKVNGYTTEFSSSVKGRFTISRDNSQSILYLQMNTLRVEDSATYYCARVSYYGRGWYFDYWGQGTTLTVSS
VL: DIVMTQSTSSLSASLGDRVTISCRASQDIDNYLSWFQQKPDGTVKLLIYYTSRLHSGVPSRFSGSGSGTDYSLTISSLDQEDIATYFCQQGNTFPWTFGGGTKLEIK
B2: 1B7 (antibody, V domains shown)
VH: QVQLQQPGSELVRPGASVKLSCKASGYKFTSYWMHWVKQRPGQGLEWIGNIFPGSGSTNYDEKFNSKATLTVDTSSNTAYMQLSSLTSEDSAVYYCTRWLSGAYFDYWGQGTTLTVSS
VL: QIVLTQSPALMSASPGEKVTMTCSASSSVSFMYWYQQKPRSSPKPWIYLTSNLPSGVPARFSGSGSGTSYSLTISSMEAEDAATYYCQQWSSHPPTFGSGTKLEIK

Legend:
pertussis toxin (PT) [1] = target: T1, pertussis toxin (PT) (Bordetella pertussis, UniProt P04977 35-269; P04978 28-226; P04979 29-227; P0A3R5 43-152; P04981 35-133); assay: cell-based or functional assay
pertussis toxin (PT) [2] = target: T1, pertussis toxin (PT); assay: BLI, antibody on AHC biosensor, PTpuri 6.25-100 nM in solution
pertussis toxin (PT) [3] = target: T1, pertussis toxin (PT); assay: BLI in-tandem binning on PT-biotin; competitor (Ab1, bound first): 11E6
pertussis toxin (PT) [4] = target: T1, pertussis toxin (PT); assay: BLI in-tandem binning on PT-biotin; competitor (Ab1, bound first): 1B7

| Binder | Minimum neutralizing concentration (CHO-K1 cells with PT toxin) (pertussis toxin (PT) [1]) | Kd (pertussis toxin (PT) [2]) | koff (pertussis toxin (PT) [2]) | kon (pertussis toxin (PT) [2]) | Ab2 with Ab1/Ab2 without Ab1 (pertussis toxin (PT) [3]) | Ab2 with Ab1/Ab2 without Ab1 (pertussis toxin (PT) [4]) |
| --- | --- | --- | --- | --- | --- | --- |
| B1 | 0.8 µg/mL | < 1 pM | < 1e-07 s⁻¹ | 311000 M⁻¹ s⁻¹ | 0.2% | – |
| B2 | 1.6 µg/mL | < 1 pM | < 1e-07 s⁻¹ | 387000 M⁻¹ s⁻¹ | – | 1.1% |
